{"source": "patent US20240034757A1", "about": "(OXFORD UNIVERSITY INNOVATION, published 2024)", "binders": {"B1": {"name": "CXCL13_HUMAN (ligand)", "chain": "VLEVYYTSLRCRCVQESSVFIPRRFIDRIQILPRGNGCPRKEIIVWKKNKSIVCVDPQAEWIQRMMEVLRKRSSSTLPVPVFKRKIP"}}, "key": {"CCL25_HUMAN": {"target": "T1, CCL25_HUMAN (human, UniProt O15444 24-150)", "T1 sequence": "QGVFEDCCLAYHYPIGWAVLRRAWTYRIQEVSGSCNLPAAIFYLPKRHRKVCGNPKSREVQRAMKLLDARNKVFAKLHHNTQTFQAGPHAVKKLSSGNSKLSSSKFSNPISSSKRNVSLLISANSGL", "assay": "yeast surface display FACS"}, "P1095_IXORI": {"target": "T2, P1095_IXORI (Ixodes ricinus, UniProt A0A0K8RCE3 24-112)", "T2 sequence": "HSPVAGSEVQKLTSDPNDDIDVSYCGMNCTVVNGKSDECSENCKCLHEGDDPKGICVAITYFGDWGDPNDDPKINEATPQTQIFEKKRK", "assay": "BLI"}, "P1080_IXORI": {"target": "P1080_IXORI (Ixodes ricinus, UniProt A0A090XBL6 20-118)", "sequence (A0A090XBL6 20-118)": "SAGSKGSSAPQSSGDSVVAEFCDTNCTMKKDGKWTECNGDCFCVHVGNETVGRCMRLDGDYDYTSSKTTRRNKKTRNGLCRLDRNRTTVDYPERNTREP", "assay": "BLI"}, "P1134_IXORI": {"target": "T3, P1134_IXORI (Ixodes ricinus, UniProt A0A0K8RAI0 32-135)", "T3 sequence": "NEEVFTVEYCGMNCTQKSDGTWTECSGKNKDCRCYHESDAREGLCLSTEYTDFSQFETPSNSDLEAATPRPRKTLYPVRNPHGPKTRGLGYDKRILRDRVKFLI", "assay": "BLI"}, "P1096_IXORI": {"target": "T4, P1096_IXORI (Ixodes ricinus, UniProt A0A0K8RKE4 24-114)", "T4 sequence": "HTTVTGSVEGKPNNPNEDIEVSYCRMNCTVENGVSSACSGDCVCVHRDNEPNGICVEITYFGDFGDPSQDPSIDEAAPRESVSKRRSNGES", "assay": "BLI"}, "CXCL11_HUMAN": {"target": "T5, CXCL11_HUMAN (human, UniProt O14625 22-94)", "T5 sequence": "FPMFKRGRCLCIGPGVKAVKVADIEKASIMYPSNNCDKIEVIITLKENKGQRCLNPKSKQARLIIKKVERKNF", "assay": "BLI"}, "CXCL12_HUMAN": {"target": "CXCL12_HUMAN (human, UniProt P48061 22-89)", "sequence (P48061 22-89 limits assumed)": "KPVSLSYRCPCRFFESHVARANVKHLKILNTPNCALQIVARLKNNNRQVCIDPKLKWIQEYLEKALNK", "assay": "BLI"}, "CXCL14_HUMAN": {"target": "T6, CXCL14_HUMAN (human, UniProt O95715 35-111)", "T6 sequence": "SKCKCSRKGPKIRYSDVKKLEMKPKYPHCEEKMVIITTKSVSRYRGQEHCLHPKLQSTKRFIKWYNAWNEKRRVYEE", "assay": "BLI"}, "CXCL7_HUMAN": {"target": "T7, CXCL7_HUMAN (human, UniProt P02775 59-128)", "T7 sequence": "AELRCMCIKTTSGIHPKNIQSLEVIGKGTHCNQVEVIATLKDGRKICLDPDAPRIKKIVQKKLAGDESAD", "assay": "BLI [Cont.]"}, "CXCL8_HUMAN [1]": {"target": "T8, CXCL8_HUMAN (human, UniProt P10145 28-99)", "T8 sequence": "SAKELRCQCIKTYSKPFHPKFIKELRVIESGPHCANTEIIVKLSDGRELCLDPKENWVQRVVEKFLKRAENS", "assay": "BLI [Cont.]"}, "CXCL4_HUMAN": {"target": "T9, CXCL4_HUMAN (human, UniProt P02776 32-101)", "T9 sequence": "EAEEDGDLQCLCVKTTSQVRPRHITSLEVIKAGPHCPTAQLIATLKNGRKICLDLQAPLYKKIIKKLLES", "assay": "BLI [Cont.]"}, "CXCL5_HUMAN [2]": {"target": "T10, CXCL5_HUMAN (human, UniProt P42830 41-114)", "T10 sequence": "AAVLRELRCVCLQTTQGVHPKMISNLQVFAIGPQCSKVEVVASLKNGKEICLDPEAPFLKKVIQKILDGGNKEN", "assay": "BLI [Cont.]"}, "CXCL2_HUMAN [3]": {"target": "T11, CXCL2_HUMAN (human, UniProt P19875 35-107)", "T11 sequence": "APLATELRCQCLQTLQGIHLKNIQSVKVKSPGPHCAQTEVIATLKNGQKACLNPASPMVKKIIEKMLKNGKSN", "assay": "BLI [Cont.]"}, "CXCL10_HUMAN [4]": {"target": "T12, CXCL10_HUMAN (human, UniProt P02778 22-98)", "T12 sequence": "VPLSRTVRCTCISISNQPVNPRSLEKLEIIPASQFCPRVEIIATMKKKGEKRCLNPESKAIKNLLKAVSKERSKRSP", "assay": "yeast surface display FACS re-test; note: test concentration or dose not given here"}, "CXCL13_HUMAN": {"target": "B1", "assay": "BLI"}, "CXCL10_HUMAN [5]": {"target": "T12, CXCL10_HUMAN", "assay": "BLI"}, "CXCL9_HUMAN": {"target": "T13, CXCL9_HUMAN (human, UniProt Q07325 23-125)", "T13 sequence": "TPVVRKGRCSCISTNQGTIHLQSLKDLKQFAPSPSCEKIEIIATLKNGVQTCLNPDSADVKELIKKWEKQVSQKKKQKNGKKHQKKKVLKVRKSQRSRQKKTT", "assay": "BLI"}, "CXCL6_HUMAN [6]": {"target": "T14, CXCL6_HUMAN (human, UniProt P80162 38-114)", "T14 sequence": "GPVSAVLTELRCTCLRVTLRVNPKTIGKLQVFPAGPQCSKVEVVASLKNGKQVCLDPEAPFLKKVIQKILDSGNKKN", "assay": "BLI [Cont.]"}, "CCL2_HUMAN": {"target": "CCL2_HUMAN (human, UniProt P13500 24-99)", "sequence (P13500 24-99 limits assumed)": "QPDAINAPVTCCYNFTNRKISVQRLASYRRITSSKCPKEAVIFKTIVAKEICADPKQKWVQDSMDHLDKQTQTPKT", "assay": "cell-based or functional assay"}, "CCL5_HUMAN": {"target": "T15, CCL5_HUMAN (human, UniProt P13501 24-91)", "T15 sequence": "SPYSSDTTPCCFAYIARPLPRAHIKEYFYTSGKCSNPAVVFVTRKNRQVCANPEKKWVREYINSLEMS", "assay": "cell-based or functional assay"}, "CCL8_HUMAN": {"target": "T16, CCL8_HUMAN (human, UniProt P80075 24-99)", "T16 sequence (looked up)": "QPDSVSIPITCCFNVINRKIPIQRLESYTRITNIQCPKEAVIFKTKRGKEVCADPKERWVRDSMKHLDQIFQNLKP", "assay": "cell-based or functional assay"}, "CCL7_HUMAN": {"target": "CCL7_HUMAN (human, UniProt P80098 24-99)", "sequence (P80098 24-99 limits assumed)": "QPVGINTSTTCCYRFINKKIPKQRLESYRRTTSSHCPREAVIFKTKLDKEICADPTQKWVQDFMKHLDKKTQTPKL", "assay": "cell-based or functional assay"}, "CXCL3_HUMAN": {"target": "T17, CXCL3_HUMAN (human, UniProt P19876 35-107)", "T17 sequence": "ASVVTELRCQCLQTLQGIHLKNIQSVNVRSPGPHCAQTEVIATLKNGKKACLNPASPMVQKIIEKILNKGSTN", "assay": "BLI"}, "CXCL8_HUMAN [7]": {"target": "T8, CXCL8_HUMAN", "assay": "BLI"}, "CXCL6_HUMAN [8]": {"target": "T14, CXCL6_HUMAN", "assay": "BLI"}, "CXCL5_HUMAN [9]": {"target": "T10, CXCL5_HUMAN", "assay": "BLI"}, "CXCL2_HUMAN [10]": {"target": "T11, CXCL2_HUMAN", "assay": "BLI"}, "CXCL1_HUMAN": {"target": "T18, CXCL1_HUMAN (human, UniProt P09341 35-107)", "T18 sequence": "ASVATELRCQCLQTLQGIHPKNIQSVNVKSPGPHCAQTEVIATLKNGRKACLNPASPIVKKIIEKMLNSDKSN", "assay": "BLI"}}, "data": [{"binder": "P1146_IXORI (other) GPDTKGDEESDENELFTVEYCGTNCTQLENGSWTPCSGNNGNCRCFHESDKTVGLCLSTEYTDFSEYPDPNSSEIIAAAPLPRERLIQ", "values": [{"measurement": "binding result", "setting": "CCL25_HUMAN", "result": "binds"}]}, {"binder": "B1", "values": [{"measurement": "binding result", "setting": "P1095_IXORI", "result": "no binding (tested: 300 nM)"}, {"measurement": "Kd", "setting": "P1080_IXORI", "result": 1110, "unit": "nM"}, {"measurement": "binding result", "setting": "P1134_IXORI", "result": "no binding (tested: 300 nM)"}, {"measurement": "binding result", "setting": "P1096_IXORI", "result": "no binding (tested: 300 nM)"}]}, {"binder": "P1086_IXORI (other) GSKGQRASQVSETSITAEFCDTSCTQGTDKTWSGCSGDCFCVHVGNDTEGRCMRWDGDYPSAEEEE", "values": [{"measurement": "binding result", "setting": "CXCL11_HUMAN", "result": "no binding (tested: 300 nM)"}, {"measurement": "Kd", "setting": "CXCL12_HUMAN", "result": 142, "unit": "nM"}, {"measurement": "binding result", "setting": "CXCL14_HUMAN", "result": "no binding (tested: 300 nM)"}, {"measurement": "binding result", "setting": "CXCL7_HUMAN", "result": "no binding (tested: 300 nM)"}, {"measurement": "binding result", "setting": "CXCL8_HUMAN [1]", "result": "no binding (tested: 300 nM)"}, {"measurement": "binding result", "setting": "CXCL4_HUMAN", "result": "no binding (tested: 300 nM)"}, {"measurement": "Kd", "setting": "CXCL5_HUMAN [2]", "result": 26, "unit": "nM"}, {"measurement": "Kd", "setting": "CXCL2_HUMAN [3]", "result": 34, "unit": "nM"}, {"measurement": "% cells over threshold fluorescence", "setting": "CXCL10_HUMAN [4]", "result": 63, "unit": "%"}]}, {"binder": "EVA3_RHISA (other, also called Evasin-3; evasin 3) single chain: LVSTIESRTSGDGADNFDVVSCNKNCTSGQNECPEGCFCGLLGQNKKGHCYKIIGNLSGEPPVVRR", "values": [{"measurement": "binding result", "setting": "CXCL13_HUMAN", "result": "no binding (tested: 300 nM)"}, {"measurement": "binding result", "setting": "CXCL10_HUMAN [5]", "result": "no binding (tested: 300 nM)"}, {"measurement": "binding result", "setting": "CXCL9_HUMAN", "result": "no binding (tested: 300 nM)"}, {"measurement": "binding result", "setting": "CXCL11_HUMAN", "result": "no binding (tested: 300 nM)"}, {"measurement": "binding result", "setting": "CXCL12_HUMAN", "result": "no binding (tested: 300 nM)"}, {"measurement": "binding result", "setting": "CXCL14_HUMAN", "result": "no binding (tested: 300 nM)"}, {"measurement": "binding result", "setting": "CXCL7_HUMAN", "result": "no binding (tested: 300 nM)"}, {"measurement": "binding result", "setting": "CXCL4_HUMAN", "result": "no binding (tested: 300 nM)"}, {"measurement": "Kd", "setting": "CXCL6_HUMAN [6]", "result": 1.03, "unit": "nM"}, {"measurement": "Kd", "setting": "CXCL5_HUMAN [2]", "result": 24.9, "unit": "nM"}, {"measurement": "Kd", "setting": "CXCL2_HUMAN [3]", "result": 7.49, "unit": "nM"}]}, {"binder": "P467_RHIPU (other) AEKSLDSDSSGEDYELWTQGCPFLVAENRTGFGTTVSCQHNCNGAIEKVPEGEPCYTIGEDGLGRMKLNLPYNCSLGECSGGVCVPNGRSDVCFKRTWEENNKAMA", "values": [{"measurement": "IC50, THP1 cell migration", "setting": "CCL2_HUMAN", "result": 3.26, "unit": "nM"}, {"measurement": "IC50, THP1 cell migration", "setting": "CCL5_HUMAN", "result": 8.74, "unit": "nM"}, {"measurement": "IC50, THP1 cell migration", "setting": "CCL8_HUMAN", "result": 1.92, "unit": "nM"}, {"measurement": "IC50, THP1 cell migration", "setting": "CCL7_HUMAN", "result": 11.1, "unit": "nM"}]}, {"binder": "P1156_IXORI (other) ADDDNELFTVQYCGMNCTKDEGGTWTGCTGKKEGCKCYHESGKNYGLCLSTEYTDFSQYGNPSDSEIEAAKPKRSDTLSH", "values": [{"measurement": "binding result", "setting": "CXCL13_HUMAN", "result": "no binding (tested: 300 nM)"}, {"measurement": "binding result", "setting": "CXCL9_HUMAN", "result": "no binding (tested: 300 nM)"}, {"measurement": "binding result", "setting": "CXCL12_HUMAN", "result": "no binding (tested: 300 nM)"}, {"measurement": "RT", "setting": "CXCL3_HUMAN", "result": 5.76, "unit": "min"}, {"measurement": "RT", "setting": "CXCL8_HUMAN [7]", "result": 46.7, "unit": "min"}, {"measurement": "RT", "setting": "CXCL6_HUMAN [8]", "result": 3.23, "unit": "min"}, {"measurement": "RT", "setting": "CXCL5_HUMAN [9]", "result": 5.33, "unit": "min"}, {"measurement": "RT", "setting": "CXCL2_HUMAN [10]", "result": 4.2, "unit": "min"}, {"measurement": "RT", "setting": "CXCL1_HUMAN", "result": 35.7, "unit": "min"}]}]}
